Legend:
[1] = tested on: platelet-rich-plasma (PRP); assay: Ristocetin-induced aggregation of platelet-rich plasma (scFv); format: cell-based, human; conditions: scFv 25 μg/ml, 100% = ristocetin treatment
Method: The effect of Y1 (scFv) on aggregation of platelet-rich-plasma (PRP) was tested at various concentrations of Y1. PRP was pre-incubated with Y1 scFv, Y17 scFv, or a control sTM-1cFv for 4 min at 37° C. before being exposed to ristocetin, an inducer of platelet agglutination and aggregation. A reversible inhibitory effect was observed when scFv was added to PRP prior to the addition of ristocetin, and it was dose dependent.
Blood was collected into a tube containing 3.8% sodium citrate. Platelet-rich plasma was prepared by centrifugation at 250×g for 10 minutes.
For platelet aggregation studies, platelet rich plasma (PRP) and washed platelets were stirred at 500 rpm at 37° C. in whole blood Lumiaggregometer (Chronolog, Havertown, Pa.). The difference in light transmission through the platelet suspension and suspending medium was taken as 100% aggregation. The effect of Y1 on platelet aggregation was evaluated by addition of different concentration of Y1 before the addition of agonist, and the effect was recorded for four minutes.

[2] = tested on: RP-HPLC KG-1 membrane fraction; assay: Western blot with Y1 on SDS-PAGE reducing gels, KG-1 membrane fraction after enzyme treatment; format: binding, human; conditions: O-Sialo glycoprotein endopeptidase, 30′ at 37° C.
Source text: (§1) Y1 ligand was further characterized using enzymatic treatments with proteases, glycanases, and […]; Western blotting with Y1, anti-CD42 antibodies, anti-CD162 antibodies and 181, immunoprecipitation using Y1 and anti-CD162 antibodies; FACS analysis using Y1 anti-CD162 antibodies; and sequencing.
(§2) The table below summarizes the biochemical experiments preformed to characterize and localize the Y1 binding site on KG-1 cells.
(§3) The nitrocellulose membrane was blocked using 5% skim milk for one hour at room temperature. The membrane was then washed 3 times for 5 minutes each with 0.05% Tween 20 in PBS at room temperature. The membrane was incubated with 5 μg/ml Y1-biotin (or 181-biotin) in 2% skim milk in PBS for one hour at room temperature. The membrane was then washed 3 times for 5 minutes each with cold 0.05% Tween 20 in PBS in the cold room (about 4 to about 10° C.). The membrane was then incubated in the cold room with a 1:1000 dilution of SAV-HRP (streptavidin-HRP) (at a final concentration of […]) in 2% skim milk, 0.05% Tween. The dilution was carried out at room temperature (about 25° C.), then the diluted SAV-HRP was cooled on ice for 10-15 minutes before use. The incubation was carried out for 1 hour with gentle shaking. After the incubation with SAV-HRP, the membrane was washed, as above. […]

Glycocalicin (GC) = target: T1, Glycocalicin (GC) (Homo sapiens, UniProt P07359); assay: Western blot with Y1 on SDS-PAGE reducing gels, glycocalicin after enzyme treatment; format: binding; conditions: O-Sialo glycoprotein endopeptidase, 30′ at 37° C.
T1 construct: glycocalicin (soluble, extracellular fragment of GPIbα); from tissue; host or cells: human platelets
Source text: as §1, §2, §3

Heparin - BSA = assay: Western blot with Y1 on SDS-PAGE reducing gels, heparin-BSA after aryl-sulfatase; format: binding; conditions: 18 hr at 22° C.
Source text: as §1, §2, §3

Leukemia Cells = assay: FACS of leukemia samples: anti-CD162 versus Y1; format: binding, human; conditions: 12 patient samples
Method: Analysis of binding of scFv Y1 antibodies and anti-CD162 antibodies to diseased cells also illustrates that scFv Y1 has binding characteristics different from those of anti-CD162 antibodies. […] (Table F). Y1 binds to the leukemic cells in 10 of 12 samples. In contrast, anti-CD162 bound only 5 out of 12 samples. […] Thus, it may be concluded that, in leukemic cells, scFv Y1 binds to a ligand other than that recognized by anti-CD162.
Samples provided from hospitals. Patients sample 30 μl/tube. Add 5 μl /tube of CD33-APC (for AML) or CD19-APC (for B-CLL) or CD38-APC (for Multiple Myeloma). Add 5 μl/tube of CD45-PerCp and 5 μl of scFv-Y1 or control scFv-N31 or CD162-PE (KPL1). Incubate tubes 30 minutes at 4° C. with low shaking. Wash by adding 2 ml PBS and spin 5 minutes at 1200 rpm. Discard supernatant.
For a one step assay continue with the lysis step:
Add 500 μl BD Lysine solution diluted 1:10 with ddH2O (300 μl to patient sample). Vortex at high speed and incubate 12 minutes at 4° C. Wash as above. Discard supernatant. And add 500 μl PBS. The samples are read in the FACS using blood sample acquisition setup according to international standards.
For two or more assays: working buffer is PBS+1% BSA+0.05% sodium azide. Incubations and wash as above.
Lysis of the red blood cells is the final step in the assay, followed by resuspension with 500 μl PBS.

KG-1 cells = assay: Binding competition experiments on KG-1 cells (monomer, dimer, Y1 IgG); parameters: species or system human
Source text: To compare the binding of the scFv monomer (also referred to as CONY1) with the Y1 dimer, binding competition experiments were done in vitro on KG-1 cells. In addition, these experiments also compared the binding of the full Y1 IgG to the scFv Y1 monomers. To perform this study, a Y1 IgG was labeled with biotin.

[3] = target: T2, recombinant bacterial derived glycocalicin (Homo sapiens, UniProt P07359); assay: Western blot on E. coli recombinant glycocalicin; format: binding; conditions: E. coli cell lysates, IPTG induced
T2 construct: glycocalicin (GC, amino acid 1 to amino acid 493 of GPIbα); made in house; host or cells: E. coli BL21 DE3, total cell lysate
Method: The DNA fragment encoding for glycocalicin (GC, amino acid 1 to amino acid 493 of GPIbα) was cloned into an IPTG inducible prokaryotic vector cassette. E. coli (BL21 DE3) cells harboring the newly constructed plasmid were grown at 37° C. to O.D. 0.7-0.8, than at 37° C. for 3 hours for in the presence of IPTG for induction.
SDS-polyacrylamide gel loaded either with semi-purified human platelet derived glycocalicin (“GC”) or with E. coli cell lysates (“total”) derived from induced and non-induced cells were analyzed. Western blot analysis was performed with biotinylated Y1-scFv, polyclonal rabbit anti-human glycocalicin antibody, commercially available mouse anti-human CD42 monoclonal antibody (SZ2 Immunotech, PM640 Serotec, HIP1 Pharmigen, AN51 DAKO), and polyclonal antibody against the N-terminus of GPIbα (Sc-7071, Santa Cruz).

B1: Y1 scFv: fully human scFv clone binding platelets and AML cells; SEQ ID NO:25, heavy chain CDR3 SEQ ID NO:8 (protein, listed as Homo sapiens)
scFv: MKYLLPTAAAGLLLLAAQPAMAEVQLVESGGGVVRPGGSLRLSCAASGFTFDDYGMSWVRQAPGKGLEWVSGINWNGGSTGYADSVKGRFTISRDNAKNSLYLQMNSLRAEDTAVYYCARMRAPVIWGQGTLVTVSRGGGGSGGGGSGGGGSSELTQDPAVSVALGQTVRITCQGDSLRSYYASWYQQKPGQAPVLVIYGKNNRPSGIPDRFSGSSSGNTASLTITGAQAEDEADYYCNSRDSSGNHVVFGGGTKLTVLGAAAEQKLISEEDLNGAA
With B1 the “% aggregation” value [1] was 87%, the “Reactivity with Y1” value [2] was “Reactivity” and the “Reactivity with Y1” value (Glycocalicin (GC)) was “Enhanced”. For the same molecule, the “Reactivity with Y1” value (Heparin - BSA) was “Binds to”, the “samples in which the antibody binds the leukemic cells” value (Leukemia Cells) was 10 of 12 and the “amount bound to KG-1 cells to the same extent” value (KG-1 cells; FITC-labeled, without serum) was 1 µg. For the same molecule, the “competition with Y1 IgG-Biotin for binding to KG-1 cells” value (KG-1 cells; Y1 IgG-Biotin 50 ng, Y1 scFvs 5 μg and 10 μg) was “partially competed” and the “recognition in Western blot” value [3] was “did not recognize”.

Source: patent US20040001839A1, “Multimers - isolated molecules comprising epitopes containing sulfated moieties, antibodies to such epitopes, and uses thereof” (priority 2000, published 2004)
